Source: the supplement of paper PMC9112550, “Optimization of the antimicrobial peptide Bac7 by deep mutational scanning” (BMC Biology, 2022)

System: Escherichia coli TOP10
Assay: shrunken log2 fold change of peptide-encoding DNA abundance (4.5 h post-induction vs induction); higher = less antimicrobial activity (less host growth inhibition)
Details: time post-induction: 4.5 h; library: site-saturation at positions 5, 18, 19, 20
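Also: peptides expressed intracellularly from a pBAD plasmid library in pooled LB shake-flask culture, induced with 0.3% L-arabinose, DNA abundance read by NGS, three biological replicates, DESeq2 with apeglm shrinkage.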

RRIRIRPPRLPRPRPRPVANPRP
shrunken log2 fold change: -0.109

RRIRARPPRLPRPRPRPTPTPRP
shrunken log2 fold change: 0.968

RRIRRRPPRLPRPRPRPKIPPRP
shrunken log2 fold change: 0.0427

RRIRVRPPRLPRPRPRPRHHPRP
shrunken log2 fold change: -0.0962

RRIRVRPPRLPRPRPRPIYKPRP
shrunken log2 fold change: -0.535

RRIRERPPRLPRPRPRPECAPRP
shrunken log2 fold change: 0.586

RRIRIRPPRLPRPRPRPSHFPRP
shrunken log2 fold change: -0.641

RRIRWRPPRLPRPRPRPECAPRP
shrunken log2 fold change: 0.852

RRIRCRPPRLPRPRPRPTVVPRP
shrunken log2 fold change: -0.127

RRIRVRPPRLPRPRPRPVVPPRP
shrunken log2 fold change: 0.132

RRIRVRPPRLPRPRPRPCHWPRP
shrunken log2 fold change: 0.169

RRIRARPPRLPRPRPRPSLAPRP
shrunken log2 fold change: 0.54

RRIRRRPPRLPRPRPRPYPMPRP
shrunken log2 fold change: -0.187

RRIRGRPPRLPRPRPRPTIKPRP
shrunken log2 fold change: 0.48

RRIRGRPPRLPRPRPRPGDPPRP
shrunken log2 fold change: 0.779

RRIRIRPPRLPRPRPRPHPTPRP
shrunken log2 fold change: -0.216

RRIRARPPRLPRPRPRPALLPRP
shrunken log2 fold change: 0.718

RRIRSRPPRLPRPRPRPFYCPRP
shrunken log2 fold change: -0.14

RRIRMRPPRLPRPRPRPPGLPRP
shrunken log2 fold change: 0.702

RRIRGRPPRLPRPRPRPNVHPRP
shrunken log2 fold change: 0.167

RRIRNRPPRLPRPRPRPMPNPRP
shrunken log2 fold change: -0.0406

RRIRMRPPRLPRPRPRPHPYPRP
shrunken log2 fold change: 0.168

RRIRSRPPRLPRPRPRPIKNPRP
shrunken log2 fold change: -0.399

RRIRMRPPRLPRPRPRPAFLPRP
shrunken log2 fold change: 0.175

RRIRRRPPRLPRPRPRPQEMPRP
shrunken log2 fold change: 0.51

RRIRARPPRLPRPRPRPMLDPRP
shrunken log2 fold change: 0.504

RRIRHRPPRLPRPRPRPKEFPRP
shrunken log2 fold change: -0.0336

RRIRHRPPRLPRPRPRPWRHPRP
shrunken log2 fold change: -0.00865

RRIRFRPPRLPRPRPRPNKSPRP
shrunken log2 fold change: -0.67

RRIRGRPPRLPRPRPRPIIAPRP
shrunken log2 fold change: 0.571

RRIRPRPPRLPRPRPRPDKSPRP
shrunken log2 fold change: -0.442

RRIRDRPPRLPRPRPRPGKPPRP
shrunken log2 fold change: 0.0599

RRIRPRPPRLPRPRPRPNEYPRP
shrunken log2 fold change: -0.783

RRIRQRPPRLPRPRPRPSPVPRP
shrunken log2 fold change: 0.0734

RRIRSRPPRLPRPRPRPLLQPRP
shrunken log2 fold change: -0.227

RRIRCRPPRLPRPRPRPGGVPRP
shrunken log2 fold change: 0.42

RRIRPRPPRLPRPRPRPAENPRP
shrunken log2 fold change: -0.197

RRIRWRPPRLPRPRPRPTRNPRP
shrunken log2 fold change: -0.0437

RRIRRRPPRLPRPRPRPRPEPRP
shrunken log2 fold change: 0.343

RRIRCRPPRLPRPRPRPFMSPRP
shrunken log2 fold change: 0.0579

RRIRKRPPRLPRPRPRPVHYPRP
shrunken log2 fold change: -0.0126

RRIRGRPPRLPRPRPRPMRQPRP
shrunken log2 fold change: 0.453

RRIRSRPPRLPRPRPRPDPFPRP
shrunken log2 fold change: -0.214

RRIRQRPPRLPRPRPRPCDTPRP
shrunken log2 fold change: -0.435

RRIRNRPPRLPRPRPRPSNGPRP
shrunken log2 fold change: -0.12

RRIRCRPPRLPRPRPRPTCQPRP
shrunken log2 fold change: 0.00203

RRIRARPPRLPRPRPRPCFPPRP
shrunken log2 fold change: -0.0469

RRIRTRPPRLPRPRPRPCYKPRP
shrunken log2 fold change: -0.06

RRIRLRPPRLPRPRPRPQDNPRP
shrunken log2 fold change: -0.428

RRIRHRPPRLPRPRPRPCAMPRP
shrunken log2 fold change: -0.257

RRIRWRPPRLPRPRPRPFPDPRP
shrunken log2 fold change: 0.116

RRIRKRPPRLPRPRPRPHGYPRP
shrunken log2 fold change: 0.0773

RRIRHRPPRLPRPRPRPGTNPRP
shrunken log2 fold change: -0.212

RRIRVRPPRLPRPRPRPFWAPRP
shrunken log2 fold change: 0.182

RRIRIRPPRLPRPRPRPFQSPRP
shrunken log2 fold change: -0.469

RRIRIRPPRLPRPRPRPDHCPRP
shrunken log2 fold change: -0.0229

RRIRTRPPRLPRPRPRPWMDPRP
shrunken log2 fold change: -0.13

RRIRHRPPRLPRPRPRPMTAPRP
shrunken log2 fold change: -0.135

RRIRQRPPRLPRPRPRPKLLPRP
shrunken log2 fold change: -0.153

RRIRFRPPRLPRPRPRPSFIPRP
shrunken log2 fold change: -0.831

RRIRYRPPRLPRPRPRPFHDPRP
shrunken log2 fold change: -0.195

RRIRWRPPRLPRPRPRPVNSPRP
shrunken log2 fold change: 0.0541

RRIRHRPPRLPRPRPRPGQVPRP
shrunken log2 fold change: -0.00149

RRIRARPPRLPRPRPRPRTGPRP
shrunken log2 fold change: 0.387

RRIRMRPPRLPRPRPRPWAAPRP
shrunken log2 fold change: 0.502

RRIRLRPPRLPRPRPRPYNNPRP
shrunken log2 fold change: -1.03

RRIRRRPPRLPRPRPRPFGVPRP
shrunken log2 fold change: 0.0764

RRIRYRPPRLPRPRPRPSPHPRP
shrunken log2 fold change: -0.49

RRIRMRPPRLPRPRPRPDFGPRP
shrunken log2 fold change: 0.0563

RRIRSRPPRLPRPRPRPSSCPRP
shrunken log2 fold change: -0.271

RRIRLRPPRLPRPRPRPCMSPRP
shrunken log2 fold change: 0.0623

RRIRTRPPRLPRPRPRPLPNPRP
shrunken log2 fold change: 0.203

RRIRDRPPRLPRPRPRPVKMPRP
shrunken log2 fold change: -0.0606

RRIRCRPPRLPRPRPRPQHHPRP
shrunken log2 fold change: -0.46

RRIRIRPPRLPRPRPRPLSYPRP
shrunken log2 fold change: -0.528

RRIRSRPPRLPRPRPRPSQMPRP
shrunken log2 fold change: -0.161

RRIRCRPPRLPRPRPRPPACPRP
shrunken log2 fold change: 0.479

RRIRVRPPRLPRPRPRPQINPRP
shrunken log2 fold change: -0.0064

RRIRQRPPRLPRPRPRPQTIPRP
shrunken log2 fold change: -0.16

RRIRWRPPRLPRPRPRPFWFPRP
shrunken log2 fold change: -0.119

RRIRNRPPRLPRPRPRPIEDPRP
shrunken log2 fold change: -0.0858

RRIRLRPPRLPRPRPRPYQPPRP
shrunken log2 fold change: -0.582

RRIRYRPPRLPRPRPRPAGVPRP
shrunken log2 fold change: 0.0619

RRIRRRPPRLPRPRPRPEYFPRP
shrunken log2 fold change: 0.2

RRIRVRPPRLPRPRPRPMNNPRP
shrunken log2 fold change: -0.694

RRIRFRPPRLPRPRPRPRQKPRP
shrunken log2 fold change: 0.363

RRIRGRPPRLPRPRPRPELPPRP
shrunken log2 fold change: 1.33

RRIRSRPPRLPRPRPRPISIPRP
shrunken log2 fold change: 0.0336

RRIRWRPPRLPRPRPRPTDWPRP
shrunken log2 fold change: 0.581

RRIRGRPPRLPRPRPRPDWGPRP
shrunken log2 fold change: 0.242

RRIRWRPPRLPRPRPRPYDAPRP
shrunken log2 fold change: -0.189

RRIRMRPPRLPRPRPRPGKVPRP
shrunken log2 fold change: 0.101

RRIRPRPPRLPRPRPRPPTVPRP
shrunken log2 fold change: 0.279

RRIRARPPRLPRPRPRPMTNPRP
shrunken log2 fold change: 0.178

RRIRERPPRLPRPRPRPDNQPRP
shrunken log2 fold change: -0.459

RRIRPRPPRLPRPRPRPVCEPRP
shrunken log2 fold change: 0.227

RRIRQRPPRLPRPRPRPQRWPRP
shrunken log2 fold change: 0.178

RRIRCRPPRLPRPRPRPQCKPRP
shrunken log2 fold change: -0.619

RRIRDRPPRLPRPRPRPLIIPRP
shrunken log2 fold change: -0.0486

RRIRSRPPRLPRPRPRPSPCPRP
shrunken log2 fold change: -0.04

RRIRVRPPRLPRPRPRPYTHPRP
shrunken log2 fold change: -0.912

RRIRARPPRLPRPRPRPPQYPRP
shrunken log2 fold change: 0.33

RRIRVRPPRLPRPRPRPIWPPRP
shrunken log2 fold change: -0.0228

RRIRARPPRLPRPRPRPNQQPRP
shrunken log2 fold change: 0.284

RRIRTRPPRLPRPRPRPDNVPRP
shrunken log2 fold change: -0.881

RRIRGRPPRLPRPRPRPGEKPRP
shrunken log2 fold change: 1.4

RRIRMRPPRLPRPRPRPFRIPRP
shrunken log2 fold change: 0.0254

RRIRKRPPRLPRPRPRPSFGPRP
shrunken log2 fold change: -0.324

RRIRMRPPRLPRPRPRPYVWPRP
shrunken log2 fold change: -0.0956

RRIRMRPPRLPRPRPRPKPDPRP
shrunken log2 fold change: 1.13

RRIRMRPPRLPRPRPRPQMRPRP
shrunken log2 fold change: 1

RRIRVRPPRLPRPRPRPIKIPRP
shrunken log2 fold change: -0.251

RRIRLRPPRLPRPRPRPSHRPRP
shrunken log2 fold change: -0.0457

RRIRRRPPRLPRPRPRPIVMPRP
shrunken log2 fold change: -0.0167

RRIRGRPPRLPRPRPRPIFKPRP
shrunken log2 fold change: 0.359

RRIRCRPPRLPRPRPRPALFPRP
shrunken log2 fold change: 0.344

RRIRWRPPRLPRPRPRPAKVPRP
shrunken log2 fold change: -0.177

RRIRVRPPRLPRPRPRPVHQPRP
shrunken log2 fold change: 0.241

RRIRIRPPRLPRPRPRPKDQPRP
shrunken log2 fold change: -0.196

RRIRVRPPRLPRPRPRPWFCPRP
shrunken log2 fold change: -0.299

RRIRKRPPRLPRPRPRPKGRPRP
shrunken log2 fold change: 0.262

RRIRRRPPRLPRPRPRPAIPPRP
shrunken log2 fold change: -0.0158

RRIRKRPPRLPRPRPRPSRCPRP
shrunken log2 fold change: 0.392

RRIRVRPPRLPRPRPRPKYNPRP
shrunken log2 fold change: -0.658

RRIRNRPPRLPRPRPRPCRLPRP
shrunken log2 fold change: -0.0199
